Measured values reported in paper PMC7126439.

Tests used:
GCN4-pA = assay: AUC
GCN4-pV = assay: AUC

Substance	stoichiometry N (GCN4-pA)	stoichiometry N (GCN4-pV)
GCN4-pA (peptide)	4	
GCN4-pV (peptide)		4
